From patent publication EP1728802A2

Key:
[1] = molecular target: ErbB3 expressed on 4E9H3 cells (K562 cells stably transfected with erbB3 cDNA) (UniProt P21860); assay: Scatchard analysis of competitive 125I-HRG binding to 4E9H3 cells, no antibody
[2] = molecular target: ErbB3 expressed on 4E9H3 cells (K562 cells stably transfected with erbB3 cDNA) (UniProt P21860); assay: Scatchard analysis of competitive 125I-HRG binding to 4E9H3 cells, in the presence of 100 nM 3-8D6 Fab
[3] = molecular target: ErbB3 expressed on 4E9H3 cells (K562 cells stably transfected with erbB3 cDNA) (UniProt P21860); assay: Scatchard analysis of competitive 125I-HRG binding to 4E9H3 cells, in the presence of 100 nM 3-8D6 IgG

Sequence of UniProt P21860 (P21860 20-1342 limits assumed): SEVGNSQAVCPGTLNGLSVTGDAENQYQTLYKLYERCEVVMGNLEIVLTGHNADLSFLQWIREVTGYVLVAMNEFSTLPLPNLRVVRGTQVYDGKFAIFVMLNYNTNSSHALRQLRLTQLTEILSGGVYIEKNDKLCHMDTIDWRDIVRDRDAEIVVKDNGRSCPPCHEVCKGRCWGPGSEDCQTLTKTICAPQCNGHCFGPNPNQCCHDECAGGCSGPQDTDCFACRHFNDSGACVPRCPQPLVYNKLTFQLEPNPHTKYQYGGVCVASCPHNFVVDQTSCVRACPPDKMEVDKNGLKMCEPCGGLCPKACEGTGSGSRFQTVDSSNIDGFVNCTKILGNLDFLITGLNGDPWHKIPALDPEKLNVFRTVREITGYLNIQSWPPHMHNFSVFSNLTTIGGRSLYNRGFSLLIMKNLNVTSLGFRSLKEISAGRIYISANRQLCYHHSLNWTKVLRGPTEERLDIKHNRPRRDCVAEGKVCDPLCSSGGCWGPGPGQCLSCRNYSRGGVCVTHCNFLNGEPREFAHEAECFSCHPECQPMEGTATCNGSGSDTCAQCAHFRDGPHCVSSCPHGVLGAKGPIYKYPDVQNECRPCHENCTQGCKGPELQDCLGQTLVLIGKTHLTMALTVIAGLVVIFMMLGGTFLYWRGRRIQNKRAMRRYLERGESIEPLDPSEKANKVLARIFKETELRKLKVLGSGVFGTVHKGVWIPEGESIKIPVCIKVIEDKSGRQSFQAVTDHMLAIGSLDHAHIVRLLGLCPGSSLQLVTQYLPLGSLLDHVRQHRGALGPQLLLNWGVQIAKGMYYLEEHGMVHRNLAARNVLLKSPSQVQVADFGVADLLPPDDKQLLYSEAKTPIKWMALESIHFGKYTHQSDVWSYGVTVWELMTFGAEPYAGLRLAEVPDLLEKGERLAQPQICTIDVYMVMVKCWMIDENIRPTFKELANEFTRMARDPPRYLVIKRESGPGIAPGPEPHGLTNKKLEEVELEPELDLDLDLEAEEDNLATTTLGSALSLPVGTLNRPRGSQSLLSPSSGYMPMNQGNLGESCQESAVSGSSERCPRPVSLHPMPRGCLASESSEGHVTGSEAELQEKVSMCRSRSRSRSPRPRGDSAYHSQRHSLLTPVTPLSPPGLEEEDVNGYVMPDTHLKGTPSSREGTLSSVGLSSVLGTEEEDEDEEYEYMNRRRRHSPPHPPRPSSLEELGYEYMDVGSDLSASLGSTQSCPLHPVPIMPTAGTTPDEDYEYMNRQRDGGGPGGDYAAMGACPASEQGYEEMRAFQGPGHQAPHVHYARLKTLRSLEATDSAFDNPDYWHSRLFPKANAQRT

Substance “HRGβ1(177-244), EGF-like domain of the β1 isoform of heregulin (from UniProt Q02297 177-244) (ligand)” has a Kd [1] of 1.2 nM, a Sites/Cell [1] of 360000 sites/cell and a Kd [2] of 0.28 nM. It also gave a Sites/Cell [2] of 290000 sites/cell, a Kd [3] of 0.21 nM and a Sites/Cell [3] of 240000 sites/cell.
